This sample holds only a part of the variants without activity.
Key:
biotinyl-Phe-oxazolone = experiment: self-aminoacylation, catalytic enhancement (BFO) (fold over background); higher = more active; k-Seq, kA / k0A0; sequences stand for … in GGGAAUGGAUCCACAUCUACGAAUUC…UUCACUGCAGACUUGACGAAGCUG
Method in brief: (§1)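 Mutagenized RNA pools with a 21-nt variable region (0.43 μM) reacted with each biotinyl-aminoacyl-oxazolone at 2–1250 μM. Reactions ran in 50 μL HEPES/NaCl/KCl/MgCl2/CaCl2 buffer with 5% acetonitrile, pH 6.9–7.0, for 90 minutes at room temperature. Streptavidin-captured RNA was quantified by triplicate qPCR and Illumina sequencing, and per-sequence fraction reacted was fit to a pseudo-first-order model with 1000 bootstraps. Catalytic enhancement is median kA divided by the uncatalyzed rate, the low-activity peak of a bimodal Gaussian fit.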

biotinyl-Trp-oxazolone = experiment: self-aminoacylation, catalytic enhancement (BWO) (fold over background); higher = more active; k-Seq, kA / k0A0; sequences stand for … in GGGAAUGGAUCCACAUCUACGAAUUC…UUCACUGCAGACUUGACGAAGCUG
Method in brief: as §1

Sequence | self-aminoacylation (biotinyl-Phe-oxazolone) | self-aminoacylation (biotinyl-Trp-oxazolone)
AAGUAUGCUAAUAGUCGUAAG [Fam3.1 aminoacylation ribozyme variant] | 33.1 | 8.96
CUAGUUCAAACAAUCGGUCGG [Fam1A.1 aminoacylation ribozyme variant] | 4.12 | 2.94
AAGUUGGCUAAUAGUCACAAG [Fam3.1 aminoacylation ribozyme variant] |  | 2.29
CUACUUCAAACAAUCGGUCGG [Fam1A.1 aminoacylation ribozyme variant] | 27.4 | 17.3
UAACACUUCAAGCAAUCGGUC [Fam1B.1 aminoacylation ribozyme variant] | 25.6 | 13.3
CGACCUCAAACAAUCGGUCUG [Fam1A.1 aminoacylation ribozyme variant] | 3.54 | 4.64
CUACUUCAAUCAAUCGGUCCG [Fam1A.1 aminoacylation ribozyme variant] | 6.48 | 4.75
CCAAACUUCAAGGAAUCGGUC [Fam1B.1 aminoacylation ribozyme variant] | 5.98 | 5.42
CUACUUCAAACAAUCGGUCUA [Fam1A.1 aminoacylation ribozyme variant] | 24.5 | 10
AAGAUUGCUAAUAGGCGCAAG [Fam3.1 aminoacylation ribozyme variant] |  | 2.61
CUCAUUCAAACAAUCGGUCUG [Fam1A.1 aminoacylation ribozyme variant] | 11.7 | 7.42
AAUUUUGCUAAUAGUCGCUAG [Fam3.1 aminoacylation ribozyme variant] |  | 2.24
AAGUCGGCUAAUAGUCGCAAG [Fam3.1 aminoacylation ribozyme variant] | 9.73 | 4.2
CUACUUCAAGCAAUCGGUCCG [Fam1A.1 aminoacylation ribozyme variant] | 3.44 | 3.02
CCACACUUCAAAAAAUCGGUC [Fam1B.1 aminoacylation ribozyme variant] | 18.2 | 14.5
AAGUAUGCUAAAAGUCGCAAG [Fam3.1 aminoacylation ribozyme variant] | 8.97 | 3.97
CCACACUCCAAUCAAUCGGUC [Fam1B.1 aminoacylation ribozyme variant] | 5.95 | 3.48
CUACUUCAAAUAAUCGGUCUC [Fam1A.1 aminoacylation ribozyme variant] | 15.6 | 7.99
AAGUUUGCUCAUAGUCGUAAG [Fam3.1 aminoacylation ribozyme variant] | 14.6 | 3.67
CUACUUCAAGCAAUCGGUCUA [Fam1A.1 aminoacylation ribozyme variant] | 7.64 | 4.06
AAGUUUGAUUAUAGUCGCAAG [Fam3.1 aminoacylation ribozyme variant] | 2.29 | 2.07
UUACUUCAACCAAUCGGUCUG [Fam1A.1 aminoacylation ribozyme variant] | 16.2 | 11.2
CCACACUUGAAGCAUUCGGUC [Fam1B.1 aminoacylation ribozyme variant] | 3.66 | 2.09
AGGUAUGCUAAUAGUCGCAAG [Fam3.1 aminoacylation ribozyme variant] | 9.64 | 3.41

Sequence | self-aminoacylation (biotinyl-Phe-oxazolone) | self-aminoacylation (biotinyl-Trp-oxazolone)
AUUCACCUAGGUCAUUAGGUG [Fam2.2 aminoacylation ribozyme variant] |  | 2.24
ACAUACUUCAAGCAAUCGGUC [Fam1B.1 aminoacylation ribozyme variant] | 10.3 | 5.65
CCACACUUCAAGGAAUCGGUC [Fam1B.1 aminoacylation ribozyme variant] | 8.21 | 6.13
AAGUUUGCUAAUAGUCGCGAA [Fam3.1 aminoacylation ribozyme variant] | 6.39 | 3.37
CUCCUUCAAACAAUCGGGCUG [Fam1A.1 aminoacylation ribozyme variant] | 15.1 | 14.4
CCACAAUUCAAUCAAUCGGUC [Fam1B.1 aminoacylation ribozyme variant] | 10.8 | 5.08
CUAUUUCAAUCAAUCGGUCUG [Fam1A.1 aminoacylation ribozyme variant] | 6.36 | 3.72
CUACUUCAAUCAAUCGGACUG [Fam1A.1 aminoacylation ribozyme variant] | 8.24 | 4.18
CCACACUUCAAACAAUCGGGC [Fam1B.1 aminoacylation ribozyme variant] |  | 2.65
AUUCACCUAGGACAUCGUGUG [Fam2.2 aminoacylation ribozyme variant] | 3.71 | 
CUAAUUCAAACAAUCGGUCGG [Fam1A.1 aminoacylation ribozyme variant] | 2.14 | 
AUCCACCUAGGUCAUCGUGUG [Fam2.2 aminoacylation ribozyme variant] | 3.96 | 
AAGUUCGCUGAUAGUCGCAAG [Fam3.1 aminoacylation ribozyme variant] | 5.75 | 
AAGUUAGCUAAUCGUCGCAAG [Fam3.1 aminoacylation ribozyme variant] |  | 2.21
AUUCAUCUAGGUCAUCGGCUG [Fam2.2 aminoacylation ribozyme variant] | 4.5 | 
AUUACCCUGUUCAUCAAGUGA [Fam2.1 aminoacylation ribozyme variant] | 2.65 | 
AAGUUUGCUAAUCGUCGCAAG [Fam3.1 aminoacylation ribozyme variant] | 3.12 | 
AUUACCCUGGGCAUCGUGUGA [Fam2.1 aminoacylation ribozyme variant] | 7.88 | 
AAGUUUGCUAAUUGUCGCAAC [Fam3.1 aminoacylation ribozyme variant] |  | 2.13
AAGUUUGCUAAUGGUCGCACG [Fam3.1 aminoacylation ribozyme variant] | 2.96 | 
CCACACUUCAAGCUAUCGCUC [Fam1B.1 aminoacylation ribozyme variant] | 2.03 | 
AUUAUCCUGGUCAUCGAGUUA [Fam2.1 aminoacylation ribozyme variant] | 2.02 | 
AAGUUUGCGAAUAGUGGCAAG [Fam3.1 aminoacylation ribozyme variant] | 2.12 | 
AUUCACCUAGGUCGUCGGUUG [Fam2.2 aminoacylation ribozyme variant] | 4.19 | 

Sequence | self-aminoacylation (biotinyl-Phe-oxazolone) | self-aminoacylation (biotinyl-Trp-oxazolone)
UAGUUUGCUAAUAGUCGCAUG [Fam3.1 aminoacylation ribozyme variant] | 3.23 | 
CGACUUCAGACAAUCGGUCUG [Fam1A.1 aminoacylation ribozyme variant] | 3.95 | 
AAUUUUGCUAAGAGUCGCAAG [Fam3.1 aminoacylation ribozyme variant] | 2.23 | 
AAUUUUGCUAAUAGUCGCCAG [Fam3.1 aminoacylation ribozyme variant] | 2.69 | 
AAGUCUGCUAUUAGUCGCAAG [Fam3.1 aminoacylation ribozyme variant] | 4.82 | 
CUACUUGAAACAAGCGGUCUG [Fam1A.1 aminoacylation ribozyme variant] | 4.76 | 
AAGUUAGCUAAGAGUCGCAAG [Fam3.1 aminoacylation ribozyme variant] | 2.38 | 
CCACACUUCAAGAAAUCAGUC [Fam1B.1 aminoacylation ribozyme variant] | 4.56 | 
GAGUUUGCUAAGAGUCGCAAG [Fam3.1 aminoacylation ribozyme variant] | 3.01 | 
AAGUUAGCUAAUAGUCGAAAG [Fam3.1 aminoacylation ribozyme variant] | 3.83 | 
AAGCUUGCUAAUAGUCUCAAG [Fam3.1 aminoacylation ribozyme variant] | 2.19 | 
AAAUUUGCUAAUAUUCGCAAG [Fam3.1 aminoacylation ribozyme variant] |  | 2.01
CAACUGCAAACAAUCGGUCUG [Fam1A.1 aminoacylation ribozyme variant] | 4.06 | 
UAGUUUGCUAAUAGUCUCAAG [Fam3.1 aminoacylation ribozyme variant] | 3.9 | 
AAGUAGGCUAAUAGUCGCAAG [Fam3.1 aminoacylation ribozyme variant] | 3.24 | 
AUUACCCGGGUCGUCGAGUGA [Fam2.1 aminoacylation ribozyme variant] | 3.86 | 
CUACUUCAAACACCCGGUCUG [Fam1A.1 aminoacylation ribozyme variant] |  | 2.08
AUUCACCUAGGUCAUUGGUUG [Fam2.2 aminoacylation ribozyme variant] | 2.3 | 
AAGUUUGCUCAUCGUCGCAAG [Fam3.1 aminoacylation ribozyme variant] | 3.33 | 
CCACACUUCAAGCGAUGGGUC [Fam1B.1 aminoacylation ribozyme variant] | 3.56 | 
AAGUUUACCAAUAGUCGCAAG [Fam3.1 aminoacylation ribozyme variant] | 2.58 | 
AAGUUUGCUAAGAGUCGCCAG [Fam3.1 aminoacylation ribozyme variant] |  | 2.06
